{
  "source": "paper PMC8368996",
  "about": "“Interactions between AMOT PPxY motifs and NEDD4L WW domains function in HIV-1 release” (The Journal of Biological Chemistry, 2021)",
  "key": {"[1]": {"molecular_target": "AMOT(1-300)-ALEXA488 (UniProt Q4VCS5)", "sequence (Q4VCS5 1-300)": "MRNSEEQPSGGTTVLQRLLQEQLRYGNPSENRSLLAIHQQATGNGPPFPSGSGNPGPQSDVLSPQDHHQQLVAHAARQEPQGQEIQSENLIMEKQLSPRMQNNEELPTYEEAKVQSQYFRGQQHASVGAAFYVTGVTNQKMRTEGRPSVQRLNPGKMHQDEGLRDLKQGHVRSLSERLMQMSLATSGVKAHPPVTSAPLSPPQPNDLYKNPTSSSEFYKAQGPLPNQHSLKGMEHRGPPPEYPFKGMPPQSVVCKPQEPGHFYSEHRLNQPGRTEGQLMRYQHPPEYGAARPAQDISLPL", "assay": "fluorescence polarisation"}, "[2]": {"molecular_target": "AMOT PPxY3 (Homo sapiens) (UniProt Q4VCS5)", "settings": "cited from earlier work"}, "[3]": {"molecular_target": "AMOT PPxY1 peptide (residues 100-114), Oregon Green 488-labelled (UniProt Q4VCS5)", "assay": "fluorescence polarisation; 1 nM Oregon Green-labelled PPxY peptide, 2-fold dilutions of WW domain; 20 mM Tris pH 7.5, 150 mM NaCl, 0.5 mM TCEP; 26 °C (legend: 25 °C)"}, "[4]": {"molecular_target": "AMOT PPxY1 A112K mutant peptide (UniProt Q4VCS5)", "assay": "fluorescence polarisation; 1 nM Oregon Green-labelled PPxY peptide, 2-fold dilutions of WW domain; 20 mM Tris pH 7.5, 150 mM NaCl, 0.5 mM TCEP; 26 °C (legend: 25 °C)"}, "[5]": {"molecular_target": "AMOT PPxY2 P239L mutant peptide (UniProt Q4VCS5)", "assay": "fluorescence polarisation; 1 nM Oregon Green-labelled PPxY peptide, 2-fold dilutions of WW domain; 20 mM Tris pH 7.5, 150 mM NaCl, 0.5 mM TCEP; 26 °C (legend: 25 °C)"}, "[6]": {"molecular_target": "AMOT PPxY1 peptide (residues 100-114), Oregon Green 488-labelled (UniProt Q4VCS5)", "assay": "fluorescence polarisation; 1 nM Oregon Green-labelled PPxY peptide, 2-fold dilutions of WW domain; 20 mM Tris pH 7.5, 150 mM NaCl, 0.5 mM TCEP; 26 °C (legend: 25 °C)", "remark": "listed apart in the source"}, "[7]": {"molecular_target": "AMOT PPxY1 E104K/E105K mutant peptide (UniProt Q4VCS5)", "assay": "fluorescence polarisation; 1 nM Oregon Green-labelled PPxY peptide, 2-fold dilutions of WW domain; 20 mM Tris pH 7.5, 150 mM NaCl, 0.5 mM TCEP; 26 °C (legend: 25 °C)"}},
  "note": "Where two headings read alike, the source gives them in different places.",
  "data": [
    {"substance": "full-length recombinant NEDD4L (isoform 2) (enzyme)", "values": [
      {"measurement": "Kd", "setting": "[1]", "result": 2.7, "unit": "µM"}
    ]},
    {"substance": "KIBRA WW1-WW2 (from UniProt Q8IX03)", "values": [
      {"measurement": "Kd", "setting": "[2]", "result": 0.096, "unit": "µM"}
    ]},
    {"substance": "NEDD4L WW3 domain (domain or fragment)", "values": [
      {"measurement": "Kd", "setting": "[3]", "result": 4.5, "unit": "µM"},
      {"measurement": "Kd", "setting": "[4]", "result": 40, "unit": "µM"},
      {"measurement": "fold reduction of binding against wt PPxY2", "setting": "[5]", "result": 2.8, "unit": "fold"},
      {"measurement": "Kd", "setting": "[6]", "result": 4.8, "unit": "µM"},
      {"measurement": "Kd", "setting": "[7]", "result": 31, "unit": "µM"}
    ]}
  ]
}
